Laboratory results reported in PMC11764342, “A Novel Nitrite Reductase from Acinetobacter haemolyticus for Efficient Degradation of Nitrite” (Biomolecules, 2025).

Substrate: O=NO
Experiment: purified protein
Format: biochemical, Acinetobacter haemolyticus
Settings: dithionite-reduced methyl viologen as electron donor, 30 °C, optimum pH (printed as 7.5 in abstract, 7 in results; assay PBS pH 7.0), NaNO2 0.51-2.17 mmol/L

B1: AhNiR (Acinetobacter haemolyticus CIP 64.3 = MTCC 9819) (protein)
chain: MYLYTDFDQQLINQRVAQFRDQTERYLAGKLTEDEYRPLRLQNGLYVQRYAPMLRIAVPYGLMNTKQLRKIAEIATEYDRGYAHVSTRQNIQLNWPALEDVPDILEELATVQMHAVQTSGNCIRNTTTDQFAGVVAGEIADPRPTCELIRQWSTFHPEFAFLPRKFKIAVSALAETDRAATAFHDIGVYIVRNEAGEIGYKIMAGGGLGRTPIIGSVIRDFLPREDLIAYLEATLRVYNLHGRRDNKYKARIKILVKALTPEVFAQKVEAEFEHTREALKIQPEILKKLDEEFTPFDYQDLEDQDFTALFAEYPKFKQWFNVNTNAHKVKGYRIVTISLKRAGIAPGDMTSEEMNLIADLADKYTFGEFRTTHEQNISLVDVPQKDLFELWQTLEQNDMARAHIGFITDIICCPGGDFCSLANAKSIPISEAITRRFEDLDTIYNLGELDLNISGCMNACGHHHVGNIGILGVDKKGAEFYQITLGGNADHDASIGDILGPSFAADAVPDVIEEILNTYLDLRTEGERFIDTYRRVGIQPFKERAYA
notes: whole gene in pET28a (BamHI/XhoI), N-terminal His tag, E. coli BL21(DE3), Ni-NTA; predicted 61929 Da
With B1 the Km was 1530 µM.
